Reference: patent US20030144205A1

Target: T1, mouse RFPL4, full-length (amino acid residues 1-287) (mouse) (UniProt Q8VH31)
T1 sequence (looked up): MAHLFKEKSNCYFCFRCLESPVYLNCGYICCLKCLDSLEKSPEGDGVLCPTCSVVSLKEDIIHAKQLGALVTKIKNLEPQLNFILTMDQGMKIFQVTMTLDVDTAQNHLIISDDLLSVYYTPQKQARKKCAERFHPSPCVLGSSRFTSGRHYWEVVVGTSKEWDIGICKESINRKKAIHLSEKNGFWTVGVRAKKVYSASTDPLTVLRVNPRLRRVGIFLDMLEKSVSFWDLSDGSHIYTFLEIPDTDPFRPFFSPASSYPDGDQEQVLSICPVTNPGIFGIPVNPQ
Experiment: yeast two-hybrid mating screen of the ovary cDNA library with pGBKT7-RFPL4 as bait

# of clones: 1 clones
B1: Phosphoserine/threonine/tyrosine interaction protein (STYX) (protein, mouse, UniProt Q60969 1-223, looked up)
chain: MEDVKLEFPSLPQCKDDAEEWTYPMRREMQEVLPGLFLGPYSSAMKSKLPILQKHGITHIICIRQNIEANFIKPNFQQLFRYLVLDIADNPVENIIRFFPMTKEFIDGSLQNGGKVLVHGNAGISRSAAFVIAYIMETFGMKYRDAFAYVQERRFCINPNAGFVHQLQEYEAIYLAKLTIQMMSPLQIERSLAVHSGTTGSVKRTHEEDDDFGNMQVATAQNG
